Reference: PMC3563628, “Prevalence, Specificity and Determinants of Lipid-Interacting PDZ Domains from an In-Cell Screen and In Vitro Binding Experiments” (PLoS ONE, 2013)

Tests used:
[1] = SPR binding to PS liposomes; settings: 10% PS in DOPC, 100% DOPC as reference
Source text: (§1) As an alternative in vitro approach we performed lipid blot assays using commercially available membranes pre-spotted with PtdIns, PtdIns4P, PtdIns(4,5)P2 and PtdIns(3,4,5)P3 as well as other abundant lipids (Fig. 4B–C). IL16_3 and PDZD2_3, were excluded from this analysis due to their high binding to the blank immobilized spot. […] Other PtdInsPs-PDZ interactions were confirmed. Discrepancy between SPR and lipid blot approaches can be easily explained by the fact that the latter method is highly koff-dependent. […] We therefore performed SPR experiments with five selected PDZ domains (CASK, DFNB31_1, MAGI1_6, MAGI3_3 and SLC9A3R2_1) and two selected lipids, PS and PE, embedded in DOPC liposomes (10% PS or 40% PE in a DOPC using 100% DOPC as reference). […] We have previously reported that weak electrostatic interactions with PS reinforce the interactions of the second PDZ domain of Polychaetoid with PtdIns(4,5)P2 containing liposomes. We therefore investigated, for the same five PDZ domains, how the apparent PtdIns(4,5)P2 affinities were affected by presenting the lipid in the background of liposomes mimicking biological membrane lipid composition ([…], 20% PS, 40% PE and 5% PtdIns(4,5)P2).
(§2) SPR experiments were performed in a BiacoreT100 (GE Healthcare) at 25°C in 25 mM HEPES, 150 mM NaCl, pH 7.2 and 1 mM beta-mercaptoethanol with a flow rate of 30 µl/min. […]

[2] = SPR equilibrium binding of his-tagged PDZ domains to various PtdInsPs species; settings: recombinant PDZ domain over PtdInsPs liposomes
[3] = SPR binding to PE liposomes; settings: 40% PE in DOPC, 100% DOPC as reference
Source text: as §1, §2

[4] = biological target: C-terminal peptide of usher (FTDTHL); assay: Equilibrium peptide binding titration followed by intrinsic tryptophan fluorescence; settings: Y167W mutation introduced as fluorescent probe; protein 3 µM; 25°C, pH 7.2
Source text: Given the overall low PtdInsPs specificities, and often modest PtdInsPs affinities, it is unlikely that PtdInsPs bindings alone target the PDZ domains to their defined subcellular compartments. Plausibly, peptide interactions are also involved in controlling the subcellular targeting. To address the interplay between PtdInsPs and peptide-binding we chose DFNB31_1 and CASK as models, taking two of the PDZ domains with well-defined cognate peptides. Cognate peptide ligands were the C-terminal peptides of usher (FTDTHL) for DFNB31_1 [50] and the TKEFYA peptide of syndecan-2 for CASK [51]. We measured the PDZ-peptide affinities by a fluorescence-based approach (Fig. 4E), by engineering Trp into the PDZ scaffolds and following the interactions by changes in intrinsic fluorescence, a strategy previously established for other PDZ domains (KD-values: DFNB31_1/Y167W for FTDTHL 46±6 µM; CASK/I157W for TKEFYA 280±20 µM), [52]. We then determined the apparent PtdIns(4,5)P2 affinities in presence of a (close to) saturating concentration of respective peptide (1 mM). The FTDTHL peptide appeared to compete for DFNB31_1-PtdIns(4,5)P2 interactions (KD ^PtdIns(4,5)P2 in presence of peptide >30 µM, Fig. 4F), which might indicate overlapping binding sites. […] We have previously reported on competitive binding by peptide and PtdIns(4,5)P2 with CASK [13]. However, in these experiments the peptide was linked to sepharose beads and PtdIns(4,5)P2 was present on micelles, which made it more difficult for the PDZ domain to simultaneously interact with the two ligands.
Spectrofluorimetric measurements were performed at 25°C in 25 mM HEPES, 150 mM NaCl, pH 7.2 and 1 mM beta-mercaptoethanol in a Carry Eclipse Spectrofluorimeter (Varian). The peptides corresponded to the C-termini of syndecan-2 (TKEFYA) and usher (FTDTHL) and were of high purity (purity >95%, GeneCust), and the experiment were performed and analyzed as described previously. Urea induced equilibrium unfolding experiments were performed using 1 µM of proteins (excitation 280 nm emission 320–380 nm) and the data fitted by a standard two-state model.

[5] = SPR equilibrium binding of his-tagged PDZ domains to PtdIns(4,5)P2 liposomes; settings: SPR equilibrium analysis, 5% PtdIns(4,5)P2 in DOPC liposomes, 25°C, pH 7.2; read-out: KD app PtdIns(4,5)P2
[6] = SPR binding to PtdIns(4,5)P2 in composite liposomes mimicking biological membrane; settings: 30% PC, 20% PS, 40% PE and 5% PtdIns(4,5)P2
Source text: as §1, §2

PS binding, in words [1]: low affinity interactions
PtdInsPs binding in vitro, in words [2]: high-affinities
Kd [4]: 46 ± 6 µM
Kd [5]: 7.8 ± 2 µM
Kd [6]: 2.7 ± 1 µM
B1: DFNB31_1: recombinant his-tagged first PDZ domain of human DFNB31 (protein)
chain: GEVRLVSLRRAKAHEGLGFSIRGGSEHGVGIYVSLVEPGSLAEKEGLRVGDQILRVNDKSLARVTHAEAVKALKGSKKLVLSVYSAGRI
modifications: left off: His6, N-terminal, state not stated
notes: recombinant his-tagged first PDZ domain of human DFNB31
PE binding, in words [3]: did not observe any detectable PDZ-PE binding
